Source: paper PMC7481392, “Identification of MltG as a Prc Protease Substrate Whose Dysregulation Contributes to the Conditional Growth Defect of Prc-Deficient Escherichia coli” (Frontiers in Microbiology, 2020)
Residue numbers refer to the chain shown, from its start.

B1: HupA, N-terminally 6xHis-tagged, from the ASKA ORF library (on the proteome array) (natural protein, E. coli K12, UniProt P0ACF0 1-90, looked up)
chain: MNKTQLIDVIAEKAELSKTQAKAALESTLAAITESLKEGDAVQLVGFGTFKVNHRAERTGRNPQTGKEIKIAAANVPAFVSGKALKDAVK
notes: ORF clone of the ASKA library; source: E. coli, ASKA library clone, purified (Ni-NTA, high-throughput)
B2: YaaW, N-terminally 6xHis-tagged, from the ASKA ORF library (on the proteome array) (natural protein, E. coli K12, UniProt P75617 1-237, looked up)
chain: MNVNYLNDSDLDFLQHCSEEQLANFARLLTHNEKGKTRLSSVLMRNELFKSMEGHPEQHRRNWQLIAGELQHFGGDSIANKLRGHGKLYRAILLDVSKRLKLKADKEMSTFEIEQQLLEQFLRNTWKKMDEEHKQEFLHAVDARVNELEELLPLLMKDKLLAKGVSHLLSSQLTRILRTHAAMSVLGHGLLRGAGLGGPVGAALNGVKAVSGSAYRVTIPAVLQIACLRRMVSATQV
notes: YaaW, function E. coli K12; ORF clone of the ASKA library; source: E. coli, ASKA library clone, purified (Ni-NTA, high-throughput)
B3: RfaD, N-terminally 6xHis-tagged, from the ASKA ORF library (on the proteome array) (natural protein, E. coli K12, UniProt P67910 1-310, looked up)
chain: MIIVTGGAGFIGSNIVKALNDKGITDILVVDNLKDGTKFVNLVDLNIADYMDKEDFLIQIMAGEEFGDVEAIFHEGACSSTTEWDGKYMMDNNYQYSKELLHYCLEREIPFLYASSAATYGGRTSDFIESREYEKPLNVYGYSKFLFDEYVRQILPEANSQIVGFRYFNVYGPREGHKGSMASVAFHLNTQLNNGESPKLFEGSENFKRDFVYVGDVADVNLWFLENGVSGIFNLGTGRAESFQAVADATLAYHKKGQIEYIPFPDKLKGRYQAFTQADLTNLRAAGYDKPFKTVAEGVTEYMAWLNRDA
notes: RfaD, ADP-L-glycero-D-manno-heptose-6-epimerase, E. coli K12; ORF clone of the ASKA library; source: E. coli, ASKA library clone, purified (Ni-NTA, high-throughput)
B4: YfaU, N-terminally 6xHis-tagged, from the ASKA ORF library (on the proteome array) (natural protein, E. coli K12, UniProt P76469 1-267, looked up)
chain: MNALLSNPFKERLRKGEVQIGLWLSSTTAYMAEIAATSGYDWLLIDGEHAPNTIQDLYHQLQAVAPYASQPVIRPVEGSKPLIKQVLDIGAQTLLIPMVDTAEQARQVVSATRYPPYGERGVGASVARAARWGRIENYMAQVNDSLCLLVQVESKTALDNLDEILDVEGIDGVFIGPADLSASLGYPDNAGHPEVQRIIETSIRRIRAAGKAAGFLAVAPDMAQQCLAWGANFVAVGVDTMLYSDALDQRLAMFKSGKNGPRIKGSY
notes: YfaU (RhmA), 2-keto-3-deoxy-L-rhamnonate aldolase, E. coli K12; ORF clone of the ASKA library; also called RhmA; source: E. coli, ASKA library clone, purified (Ni-NTA, high-throughput)
B5: YidA, N-terminally 6xHis-tagged, from the ASKA ORF library (on the proteome array) (natural protein, E. coli K12, UniProt P0A8Y5 1-270, looked up)
chain: MAIKLIAIDMDGTLLLPDHTISPAVKNAIAAARARGVNVVLTTGRPYAGVHNYLKELHMEQPGDYCITYNGALVQKAADGSTVAQTALSYDDYRFLEKLSREVGSHFHALDRTTLYTANRDISYYTVHESFVATIPLVFCEAEKMDPNTQFLKVMMIDEPAILDQAIARIPQEVKEKYTVLKSAPYFLEILDKRVNKGTGVKSLADVLGIKPEEIMAIGDQENDIAMIEYAGVGVAMDNAIPSVKEVANFVTKSNLEDGVAFAIEKYVLN
notes: YidA, sugar phosphatase, E. coli K12; ORF clone of the ASKA library; source: E. coli, ASKA library clone, purified (Ni-NTA, high-throughput)
B6: YegV, N-terminally 6xHis-tagged, from the ASKA ORF library (on the proteome array) (natural protein, E. coli K12, UniProt P76419 1-321, looked up)
chain: MSGARLHTLLPELTTRQSVMVVGAAVIDVIADAYALPWRGCDIELKQQSVNVGGCALNIAVALKRLGIEAGNALPLGQGVWAEMIRNRMAKEGLISLIDNAEGDNGWCLALVEPDGERTFMSFSGVENQWNRQWLARLTVAPGSLLYFSGYQLASPCGELLVEWLEELQDVTPFIDFGPRIGDIPDALLARIMACRPLVSLNRQEAEIAAERFALSAEITTLGKQWQEKFAAPLIVRLDKEGAWYFSNDASGCIPAFPTQVVDTIGAGDSHAGGVLAGLASGLPLADAVLLGNAVASWVVGHRGGDCAPTREELLLAHKNV
notes: YegV, putative sugar kinase, E. coli K12; ORF clone of the ASKA library; source: E. coli, ASKA library clone, purified (Ni-NTA, high-throughput)
B7: YdhS, N-terminally 6xHis-tagged, from the ASKA ORF library (on the proteome array) (natural protein, E. coli K12, UniProt P77148 1-534, looked up)
chain: MKKIAIVGAGPTGIYTLFSLLQQQTPLSISIFEQADEAGVGMPYSDEENSKMMLANIASIEIPPIYCTYLEWLQKQEDSHLQRYGVKKETLHDRQFLPRILLGEYFRDQFLRLVDQARQQKFAVAVYESCQVTDLQITNAGVMLATNQDLPSETFDLAVIATGHVWPDEEEATRTYFPSPWSGLMEAKVDACNVGIMGTSLSGLDAAMAVAIQHGSFIEDDKQHVVFHRDNASEKLNITLLSRTGILPEADFYCPIPYEPLHIVTDQALNAEIQKGEEGLLDRVFRLIVEEIKFADPDWSQRIALESLNVDSFAQAWFAERKQRDPFDWAEKNLQEVERNKREKHTVPWRYVILRLHEAVQEIVPHLNEHDHKRFSKGLARVFIDNYAAIPSESIRRLLALREAGIIHILALGEDYKMEINESRTVLKTEDNSYSFDVFIDARGQRPLKVKDIPFPGLREQLQKTGDEIPDVGEDYTLQQPEDIRGRVAFGALPWLMHDQPFVQGLTACAEIGEAMARAVVKPASRARRRLSFD
notes: YdhS, function E. coli K12; ORF clone of the ASKA library; source: E. coli, ASKA library clone, purified (Ni-NTA, high-throughput)
B8: TyrA, N-terminally 6xHis-tagged, from the ASKA ORF library (on the proteome array) (natural protein)
chain: not shown
notes: TyrA, fused chorismate mutase/prephenate dehydrogenase, E. coli K12; ORF clone of the ASKA library; source: E. coli, ASKA library clone, purified (Ni-NTA, high-throughput)
B9: YacF, N-terminally 6xHis-tagged, from the ASKA ORF library (on the proteome array) (natural protein, E. coli K12, UniProt P36680 1-247, looked up)
chain: MQTQVLFEHPLNEKMRTWLRIEFLIQQLTVNLPIVDHAGALHFFRNVSELLDVFERGEVRTELLKELDRQQRKLQTWIGVPGVDQSRIEALIQQLKAAGSVLISAPRIGQFLREDRLIALVRQRLSIPGGCCSFDLPTLHIWLHLPQAQRDSQVETWIASLNPLTQALTMVLDLIRQSAPFRKQTSLNGFYQDNGGDADLLRLNLSLDSQLYPQISGHKSRFAIRFMPLDTENGQVPERLDFELACC
notes: YacF (ZapD), cell division protein, E. coli K12; ORF clone of the ASKA library; also called ZapD; source: E. coli, ASKA library clone, purified (Ni-NTA, high-throughput)

Columns and labels:
[1] = molecular target: T1, Prc protease (wild type), C-terminally His6-tagged (E. coli, UniProt P23865 23-682, Dylight 549 NHS ester on amines); experiment: peptide or protein array; E. coli K12 proteome array (N-terminally His6-tagged ASKA proteins spotted in duplicate on slides), blocked with 1% BSA in TBS, probed with 1 μM Dylight 549-labelled Prc variant in PBS pH 7.4 with 1% BSA, RT, 1 h; washed with TBS-T; triplicate; conditions: both partners purified
T1 construct: Prc (Tsp), periplasmic protease of Escherichia coli, 76 kDa; encoded on pTR147 (Spiers et al., 2002); also called Tsp; Prc (WT); source: E. coli DH5α harboring pTR147, purified (Ni-NTA)
T1 sequence (looked up): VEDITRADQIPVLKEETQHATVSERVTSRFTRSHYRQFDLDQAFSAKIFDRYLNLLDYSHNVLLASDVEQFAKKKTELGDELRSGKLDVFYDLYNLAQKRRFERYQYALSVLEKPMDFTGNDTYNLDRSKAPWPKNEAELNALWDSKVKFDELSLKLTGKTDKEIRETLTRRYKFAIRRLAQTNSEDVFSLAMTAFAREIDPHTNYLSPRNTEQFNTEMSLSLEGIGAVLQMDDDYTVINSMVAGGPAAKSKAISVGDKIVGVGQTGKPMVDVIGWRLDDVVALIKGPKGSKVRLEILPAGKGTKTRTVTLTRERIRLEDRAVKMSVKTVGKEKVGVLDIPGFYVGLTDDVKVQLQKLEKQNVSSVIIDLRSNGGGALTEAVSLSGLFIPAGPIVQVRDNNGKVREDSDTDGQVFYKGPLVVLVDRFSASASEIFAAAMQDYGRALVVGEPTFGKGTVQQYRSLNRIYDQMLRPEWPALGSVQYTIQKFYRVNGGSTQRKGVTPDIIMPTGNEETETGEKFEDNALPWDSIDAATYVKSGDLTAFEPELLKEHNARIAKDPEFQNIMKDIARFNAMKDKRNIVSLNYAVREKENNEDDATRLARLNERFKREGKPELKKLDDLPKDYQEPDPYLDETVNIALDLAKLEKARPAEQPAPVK

[2] = molecular target: T2, K455A-Prc, catalytically inactive Prc mutant, C-terminally His6-tagged (E. coli, UniProt P23865 23-682, K455A, Dylight 549 NHS ester on amines (array assay only)); experiment: as above; conditions: both partners purified
T2 construct: Prc (Tsp), periplasmic protease of Escherichia coli, with K455A; encoded on pTR163 (Spiers et al., 2002); The same construct was used purified and labelled on the array, and unlabelled in lysate for the co-IP; source: E. coli DH5α harboring pTR163, purified (Ni-NTA); E. coli ΔmltG-BW25113 harboring pTR163, in lysate; not shown: His6, C-terminal, kept
T2 sequence (looked up): T1 sequence (looked up) with K455A

| Binder | binding result [1] | binding result [2] |
| --- | --- | --- |
| B1 | binds |  |
| B2 | binds | binds |
| B3 | binds |  |
| B4 | binds | binds |
| B5 | binds | binds |
| B6 |  | binds |
| B7 | binds |  |
| B8 |  | binds |
| B9 |  | binds |
